Test results reported in the Immune Epitope Database (IEDB).

Legend:
HLA-A*26:01 = test: IEDB peptide-MHC binding, purified MHC/competitive/fluorescence; filed as Kd, often an IC50 or EC50 that approximates it; ≥ and ≤ were set here for values at or beyond the usual limits of such assays
HLA-A*11:01 [1] = test: IEDB peptide-MHC binding, purified MHC/direct/fluorescence; filed as Kd, often an IC50 or EC50 that approximates it; ≥ and ≤ were set here for values at or beyond the usual limits of such assays
HLA-A*31:01 [2] = test: IEDB peptide-MHC binding, purified MHC/competitive/fluorescence; filed as Kd, often an IC50 or EC50 that approximates it; ≥ and ≤ were set here for values at or beyond the usual limits of such assays
HLA-B*15:01 = test: IEDB peptide-MHC binding, purified MHC/competitive/radioactivity; filed as Kd, often an IC50 or EC50 that approximates it; ≥ and ≤ were set here for values at or beyond the usual limits of such assays
HLA-B*46:01 = test: IEDB peptide-MHC binding, purified MHC/competitive/fluorescence; filed as Kd, often an IC50 or EC50 that approximates it; ≥ and ≤ were set here for values at or beyond the usual limits of such assays; settings: source organism: Clostridium botulinum B str. Eklund 17B (NRP)
HLA-A*03:01 [3] = test: as above
HLA-B*15:03 = test: IEDB peptide-MHC binding, purified MHC/competitive/radioactivity; filed as Kd, often an IC50 or EC50 that approximates it; ≥ and ≤ were set here for values at or beyond the usual limits of such assays
HLA-A*02:01 = test: as above
HLA-A*02:02 = test: as above
HLA-A*02:03 = test: as above
HLA-A*02:06 = test: as above
HLA-A*68:02 = test: as above
HLA-A*24:02 = test: as above; settings: source organism: Dengue virus 4 Philippines/H241/1956
HLA-B*08:01 = test: as above
HLA-A*32:01 = test: as above
HLA-A*03:01 [4] = test: as above; settings: source organism: Vaccinia virus WR
HLA-A*11:01 [5] = test: as above; settings: source organism: Vaccinia virus WR
HLA-A*31:01 [6] = test: as above; settings: source organism: Vaccinia virus WR
HLA-A*33:01 = test: as above; settings: source organism: Vaccinia virus WR
HLA-A*68:01 = test: as above; settings: source organism: Vaccinia virus WR
HLA-A*03:01 [7] = test: IEDB peptide-MHC binding, purified MHC/direct/fluorescence; filed as Kd, often an IC50 or EC50 that approximates it; ≥ and ≤ were set here for values at or beyond the usual limits of such assays
HLA-B*51:01 = test: IEDB peptide-MHC binding, purified MHC/competitive/fluorescence; filed as Kd, often an IC50 or EC50 that approximates it; ≥ and ≤ were set here for values at or beyond the usual limits of such assays; settings: source organism: Yersinia pestis Nepal516
HLA-A*01:01 = test: IEDB peptide-MHC binding, purified MHC/competitive/radioactivity; filed as Kd, often an IC50 or EC50 that approximates it; ≥ and ≤ were set here for values at or beyond the usual limits of such assays; settings: source organism: Dengue virus 3 Martinique/1243/1999
HLA-A*30:02 = test: as above; settings: source organism: Dengue virus 1 Brazil/97-11/1997
[8] = source organism: Yellow fever virus
[9] = source organism: Vaccinia virus WR
[10] = source organism: Escherichia coli 536
[11] = source organism: Hepatitis C virus (isolate BK)
[12] = source organism: West Nile virus
[13] = source organism: Dengue virus 4 Philippines/H241/1956
[14] = source organism: Dengue virus 2 Peru/IQT2913/1996
[15] = source organism: Mycobacterium tuberculosis
[16] = source organism: Vaccinia virus Copenhagen
[17] = source organism: Lassa virus GA391
[18] = source organism: Dengue virus 3 Martinique/1243/1999

## NTIRNAASF
HLA-A*26:01; source organism: Bacillus thuringiensis serovar israelensis ATCC 35646
  Kd: 0.0735 µM

## TINAVASRK
HLA-A*11:01 [1]; [8]
  Kd: 0.0043 µM
HLA-A*31:01 [2]; [8]
  Kd: 0.801 µM

## LLKICIKYF
HLA-B*15:01; [9]
  Kd: 5.23 µM

## FFKDGMAEV
HLA-B*46:01
  Kd: 0.398 µM

## VTVVAVPLR
HLA-A*03:01 [3]; [10]
  Kd: ≥ 20 µM
HLA-A*31:01 [2]; [10]
  Kd: 0.107 µM

## MKYCSYQSF
HLA-B*15:03; [9]
  Kd: 0.00155 µM

## FKVLDGSPI
HLA-B*15:03; [9]
  Kd: 0.000822 µM

## CVNGVCWTV
HLA-A*02:01; [11]
  Kd: 1.02 µM
HLA-A*02:02; [11]
  Kd: 1.04 µM
HLA-A*02:03; [11]
  Kd: 2.08 µM
HLA-A*02:06; [11]
  Kd: 2.67 µM
HLA-A*68:02; [11]
  Kd: 0.948 µM

## DLKDLEAHI
HLA-A*02:01; source organism: Homo sapiens
  Kd: ≥ 83.4 µM
HLA-A*02:06; source organism: Homo sapiens
  Kd: ≥ 109 µM
HLA-A*68:02; source organism: Homo sapiens
  Kd: 17.6 µM

## VLALLAFFR
HLA-A*03:01 [3]; [12]
  Kd: 0.16 µM
HLA-A*31:01 [2]; [12]
  Kd: 1.08 µM

## VMKRYSAPF
HLA-A*24:02
  Kd: 0.994 µM
HLA-B*08:01; [13]
  Kd: 0.00898 µM
HLA-B*15:01; [13]
  Kd: 0.0102 µM

## RQMEGEGVF
HLA-A*32:01; [14]
  Kd: 0.429 µM
HLA-B*15:01; [14]
  Kd: 0.00486 µM

## LPRPDTRHL
HLA-A*02:01; [9]
  Kd: ≥ 78.1 µM
HLA-A*02:02; [9]
  Kd: ≥ 77.8 µM
HLA-A*02:03; [9]
  Kd: ≥ 78.1 µM
HLA-A*02:06; [9]
  Kd: 18.4 µM
HLA-A*03:01 [4]
  Kd: ≥ 58.2 µM
HLA-A*11:01 [5]
  Kd: ≥ 77.9 µM
HLA-A*31:01 [6]
  Kd: ≥ 77.9 µM
HLA-A*33:01
  Kd: ≥ 77.7 µM
HLA-A*68:01
  Kd: ≥ 77.7 µM
HLA-A*68:02; [9]
  Kd: ≥ 76.9 µM

## FQSMHFTDM
HLA-B*08:01; [9]
  Kd: 0.0844 µM
HLA-B*15:03; [9]
  Kd: 0.00512 µM

## DVADLFPAQ
HLA-A*26:01; source organism: Mammarenavirus lassaense
  Kd: 1.78 µM

## RSADGSPPY
HLA-A*03:01 [7]; [15]
  Kd: 2.5 µM
HLA-A*11:01 [1]; [15]
  Kd: 0.0257 µM
HLA-A*31:01 [2]; source organism: Mycobacterium tuberculosis variant bovis BCG str. Pasteur 1173P2
  Kd: ≥ 20 µM

## GLYCYFTHL
HLA-B*15:01; [9]
  Kd: 0.00687 µM

## SLNTSTLGF
HLA-A*32:01; [16]
  Kd: 0.416 µM
HLA-B*15:01; [16]
  Kd: 0.00167 µM
HLA-B*15:03; [16]
  Kd: 0.0131 µM

## LLHGLDFSEV
HLA-A*02:01; [17]
  Kd: 0.0658 µM
HLA-A*02:02; [17]
  Kd: 0.117 µM
HLA-A*02:03; [17]
  Kd: 0.00357 µM
HLA-A*02:06; [17]
  Kd: 0.0712 µM
HLA-A*68:02; [17]
  Kd: ≥ 5 µM

## NIHTAITQV
HLA-A*02:03; [13]
  Kd: 0.0261 µM
HLA-A*68:02; [13]
  Kd: 0.152 µM

## VIGFLALAK
HLA-A*03:01 [7]; source organism: Amur virus
  Kd: 0.232 µM
HLA-A*11:01 [1]; source organism: Amur virus
  Kd: 0.0126 µM
HLA-A*31:01 [2]; source organism: Orthohantavirus dobravaense
  Kd: ≥ 20 µM

## LPFVWAPMV
HLA-B*51:01
  Kd: 0.0399 µM

## YLHYYRIIR
HLA-A*03:01 [7]; [15]
  Kd: ≥ 20 µM
HLA-A*31:01 [2]; source organism: Mycobacterium tuberculosis H37Rv
  Kd: 0.245 µM

## YSIPATLLV
HLA-A*01:01
  Kd: 0.941 µM
HLA-A*02:06; [18]
  Kd: 0.0102 µM
HLA-A*68:02; [18]
  Kd: 0.0169 µM

## RKYGCGNMF
HLA-B*15:03; [9]
  Kd: 0.00125 µM

## TMAHRKPTY
HLA-A*30:02
  Kd: 2.06 µM
HLA-B*15:01; source organism: Dengue virus 1 Brazil/97-11/1997
  Kd: 0.144 µM
